Experimental data reported in patent US20230032643A1 (GlaxoSmithKline, published 2023).

Experiments:
[1] = target: T1, human CR2 on primary human cells (B cells in PBMCs; tonsil follicular dendritic cells) (human, UniProt P20023 21-1033); test: flow cytometry; inhibition of serum-opsonised PnPS14 binding to CD20+ B cells in human PBMCs, mAb pre-incubated
T1 construct: Endogenous CR2 on primary human CD20+ B cells or tonsil FDCs; also called CD21
T1 sequence: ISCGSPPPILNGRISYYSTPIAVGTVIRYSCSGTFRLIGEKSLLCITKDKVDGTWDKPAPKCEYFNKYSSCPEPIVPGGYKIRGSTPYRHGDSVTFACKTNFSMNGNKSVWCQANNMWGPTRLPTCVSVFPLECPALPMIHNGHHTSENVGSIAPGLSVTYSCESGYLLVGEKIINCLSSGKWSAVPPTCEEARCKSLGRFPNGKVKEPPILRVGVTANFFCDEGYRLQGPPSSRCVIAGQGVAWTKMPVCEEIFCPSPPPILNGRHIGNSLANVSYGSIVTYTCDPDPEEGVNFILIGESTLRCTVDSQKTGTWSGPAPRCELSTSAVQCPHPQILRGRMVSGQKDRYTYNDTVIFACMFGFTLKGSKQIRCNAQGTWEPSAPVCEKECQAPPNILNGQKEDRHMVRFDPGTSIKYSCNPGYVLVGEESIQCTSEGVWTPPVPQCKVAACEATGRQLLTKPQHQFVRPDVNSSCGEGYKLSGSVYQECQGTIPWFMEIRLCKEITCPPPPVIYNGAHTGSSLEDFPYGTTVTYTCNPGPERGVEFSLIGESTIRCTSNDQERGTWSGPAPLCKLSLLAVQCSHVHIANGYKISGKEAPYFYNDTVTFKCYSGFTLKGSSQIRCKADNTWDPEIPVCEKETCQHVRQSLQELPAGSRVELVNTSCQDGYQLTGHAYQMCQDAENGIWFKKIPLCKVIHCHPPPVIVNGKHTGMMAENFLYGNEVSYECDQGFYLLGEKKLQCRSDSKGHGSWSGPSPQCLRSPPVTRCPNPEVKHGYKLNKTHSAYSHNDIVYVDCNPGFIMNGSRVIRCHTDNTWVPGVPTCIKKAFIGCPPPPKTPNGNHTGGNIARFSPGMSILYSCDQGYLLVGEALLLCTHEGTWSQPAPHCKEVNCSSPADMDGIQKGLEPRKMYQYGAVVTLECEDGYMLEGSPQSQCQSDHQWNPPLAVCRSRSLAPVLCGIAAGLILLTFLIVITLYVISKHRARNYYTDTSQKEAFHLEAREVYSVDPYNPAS

[2] = target: T1, human CR2 on primary human cells (B …); test: flow cytometry; inhibition of C3dg:streptavidin-APC ligand complex binding to primary human tonsil FDCs, mAb pre-incubated
[3] = target: T1, human CR2 on primary human cells (B …); test: flow cytometry; inhibition of C3dg:Streptavidin-APC complex binding to CD20+ B cells in human PBMCs, mAb pre-incubated
[4] = target: T1, human CR2 on primary human cells (B …); test: flow cytometry on primary human tonsil FDCs; unlabelled mAb 1053 titrated, then saturating mAb 1053-PE (1 ug/ml)
[5] = target: T2, recombinant soluble cynomolgus macaque CR2 (cynomolgus macaque, UniProt A0A2K5URG6 21-972); test: SPR (BIACORE T200), HEK-expressed antibody captured on Protein A, soluble CR2 as analyte, 25 C, equilibrium model
T2 construct: also called Cyno CR2; cyno CR2 antigen
T2 sequence: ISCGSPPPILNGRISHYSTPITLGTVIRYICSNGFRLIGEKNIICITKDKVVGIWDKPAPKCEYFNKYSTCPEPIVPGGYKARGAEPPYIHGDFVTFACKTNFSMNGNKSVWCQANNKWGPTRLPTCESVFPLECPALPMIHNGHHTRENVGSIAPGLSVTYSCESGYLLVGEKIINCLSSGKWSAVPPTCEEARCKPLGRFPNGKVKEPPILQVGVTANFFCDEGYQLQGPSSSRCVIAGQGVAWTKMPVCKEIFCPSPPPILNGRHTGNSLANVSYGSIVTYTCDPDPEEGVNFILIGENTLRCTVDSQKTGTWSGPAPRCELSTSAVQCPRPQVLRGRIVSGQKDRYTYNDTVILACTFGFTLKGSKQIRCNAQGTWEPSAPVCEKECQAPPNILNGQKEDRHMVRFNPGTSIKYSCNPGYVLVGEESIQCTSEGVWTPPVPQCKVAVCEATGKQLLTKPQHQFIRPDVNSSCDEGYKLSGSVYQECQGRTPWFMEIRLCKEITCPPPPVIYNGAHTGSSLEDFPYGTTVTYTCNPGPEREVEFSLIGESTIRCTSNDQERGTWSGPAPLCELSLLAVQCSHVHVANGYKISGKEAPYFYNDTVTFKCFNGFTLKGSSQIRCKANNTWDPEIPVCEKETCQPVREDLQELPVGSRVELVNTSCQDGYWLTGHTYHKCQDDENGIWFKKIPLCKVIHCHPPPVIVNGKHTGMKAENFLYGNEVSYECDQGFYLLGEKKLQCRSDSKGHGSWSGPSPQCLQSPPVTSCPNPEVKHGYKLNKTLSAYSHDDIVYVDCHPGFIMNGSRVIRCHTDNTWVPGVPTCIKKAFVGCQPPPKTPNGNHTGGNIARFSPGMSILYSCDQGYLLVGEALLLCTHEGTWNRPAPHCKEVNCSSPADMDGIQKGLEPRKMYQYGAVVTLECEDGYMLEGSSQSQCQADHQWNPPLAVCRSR

[6] = target: T3, recombinant soluble human CR2 (human, UniProt P20023 21-971, limits assumed); test: as above
T3 construct: it includes the transmembrane and cytoplasmic parts, which a soluble form would lack; also called human CR2 antigen
T3 sequence: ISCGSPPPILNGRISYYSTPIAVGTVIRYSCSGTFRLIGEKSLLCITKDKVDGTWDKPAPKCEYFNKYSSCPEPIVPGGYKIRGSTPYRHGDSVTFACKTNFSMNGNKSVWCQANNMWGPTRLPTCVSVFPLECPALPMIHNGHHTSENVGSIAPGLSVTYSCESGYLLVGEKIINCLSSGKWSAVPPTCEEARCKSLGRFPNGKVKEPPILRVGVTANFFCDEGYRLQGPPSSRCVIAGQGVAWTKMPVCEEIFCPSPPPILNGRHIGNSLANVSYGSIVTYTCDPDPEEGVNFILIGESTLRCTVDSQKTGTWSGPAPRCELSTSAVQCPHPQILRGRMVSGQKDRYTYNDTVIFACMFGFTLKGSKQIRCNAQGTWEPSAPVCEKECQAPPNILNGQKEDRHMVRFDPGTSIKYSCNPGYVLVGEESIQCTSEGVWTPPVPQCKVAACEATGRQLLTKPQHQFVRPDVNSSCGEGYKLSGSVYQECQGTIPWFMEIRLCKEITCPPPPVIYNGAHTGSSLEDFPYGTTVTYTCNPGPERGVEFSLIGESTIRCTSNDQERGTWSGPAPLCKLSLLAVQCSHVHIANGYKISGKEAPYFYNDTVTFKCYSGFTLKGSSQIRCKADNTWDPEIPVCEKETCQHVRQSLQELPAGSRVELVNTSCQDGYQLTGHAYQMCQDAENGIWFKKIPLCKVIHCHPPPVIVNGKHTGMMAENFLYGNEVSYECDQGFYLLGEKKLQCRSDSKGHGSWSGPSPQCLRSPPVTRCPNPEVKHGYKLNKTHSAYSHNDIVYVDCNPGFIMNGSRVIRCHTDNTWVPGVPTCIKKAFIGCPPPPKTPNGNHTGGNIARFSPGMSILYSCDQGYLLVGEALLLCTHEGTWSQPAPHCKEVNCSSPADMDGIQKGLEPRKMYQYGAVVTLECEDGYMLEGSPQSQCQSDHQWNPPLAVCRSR

B1: mAb 1053 (antibody, human IgG1, kappa, V domains shown)
VH: QLQLQESGPGLVKPSETLSLTCTVSGGSISSDSYYWGWIRQPPGKGLEWIGSIHYSGSTYYNPPLESRVTISVDTSKNQFSLKLSSVTAADTAVYYCAREGGPRHGWSWGQGTLVTVSS
VL: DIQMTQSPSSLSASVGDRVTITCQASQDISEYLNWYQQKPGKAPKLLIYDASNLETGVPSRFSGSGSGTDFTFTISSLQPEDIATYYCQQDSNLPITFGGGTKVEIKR
notes: CHO-expressed unless stated otherwise
IC50 [1]: 0.0379 nM
IC50 [2]: 0.047 nM
IC50 [3]: 0.0119 nM
EC50 [4]: 0.0622 nM
Kd [5]: 0.287 nM
Kd [6]: 0.257 nM
